{"source": "IntAct's records for PubMed 19955405", "parents": {"B1": {"name": "Serine/threonine-protein kinase SRK2E (Arabidopsis thaliana (Mouse-ear cress)), Q940H6 (parent)", "chain": "MDRPAVSGPMDLPIMHDSDRYELVKDIGSGNFGVARLMRDKQSNELVAVKYIERGEKIDENVKREIINHRSLRHPNIVRFKEVILTPTHLAIVMEYASGGELFERICNAGRFSEDEARFFFQQLISGVSYCHAMQVCHRDLKLENTLLDGSPAPRLKICDFGYSKSSVLHSQPKSTVGTPAYIAPEVLLKKEYDGKVADVWSCGVTLYVMLVGAYPFEDPEEPKNFRKTIHRILNVQYAIPDYVHISPECRHLISRIFVADPAKRISIPEIRNHEWFLKNLPADLMNDNTMTTQFDESDQPGQSIEEIMQIIAEATVPPAGTQNLNHYLTGSLDIDDDMEEDLESDLDDLDIDSSGEIVYAM", "partner": "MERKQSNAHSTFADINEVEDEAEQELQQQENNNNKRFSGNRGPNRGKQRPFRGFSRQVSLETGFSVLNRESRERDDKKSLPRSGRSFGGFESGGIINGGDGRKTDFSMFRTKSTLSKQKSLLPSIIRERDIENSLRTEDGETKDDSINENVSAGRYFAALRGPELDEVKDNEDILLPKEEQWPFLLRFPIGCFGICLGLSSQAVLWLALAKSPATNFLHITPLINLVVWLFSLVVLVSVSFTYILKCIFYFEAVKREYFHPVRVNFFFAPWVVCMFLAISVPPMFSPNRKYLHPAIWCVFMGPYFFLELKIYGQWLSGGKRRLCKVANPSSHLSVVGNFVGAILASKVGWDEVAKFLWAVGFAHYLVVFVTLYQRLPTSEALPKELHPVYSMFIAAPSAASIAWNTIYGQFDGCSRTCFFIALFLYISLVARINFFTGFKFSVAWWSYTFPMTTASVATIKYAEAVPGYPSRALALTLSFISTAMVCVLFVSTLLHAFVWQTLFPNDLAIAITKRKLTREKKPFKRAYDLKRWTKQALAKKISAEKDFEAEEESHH"}}, "data": [{"variants_of": "B1", "conditions": "with slac1_arath SLAC1, Q9LD83", "values": [{"variant": "D140A", "effect of a mutation on the interaction": "disrupting interaction"}]}]}
